Measured values from doi:10.1101/2020.12.15.422910.

Target: OsBOR3_(Δ1-642) (Oryza sativa)
Assay: cryo-EM structure

Work on OsBOR3_(Δ1-642) (domain or fragment) yielded a stoichiometry N of 2.
